In the supplement of paper PMC10065799, “High-throughput profiling of sequence recognition by tyrosine kinases and SH2 domains using bacterial peptide display” (eLife, 2023):

biological target: Hck (UniProt P08631); test: phosphorylation enrichment, bacterial display (enrichment ratio); higher = better substrate or ligand; peptides without Tyr show the background
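Wherever SH2 binding enrichment of the phosphorylated peptide, bacterial display is given: peptide library displayed on the E. coli surface as eCPX fusions, selected cells deep-sequenced, score is each peptide's frequency after selection divided by its frequency in the input.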
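Wherever phosphorylation enrichment, bacterial display is given: 11-residue human phosphosite peptides and single-mutation variants displayed on the E. coli surface, counted by deep sequencing, each peptide's frequency after selection divided by its frequency in the unselected input library; frequency after pTyr selection over input frequency; kinase dosed for 20-30% of maximal phosphorylation in three min.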

Hck, sequence (P08631 whole entry, looked up, the tested form may be a part): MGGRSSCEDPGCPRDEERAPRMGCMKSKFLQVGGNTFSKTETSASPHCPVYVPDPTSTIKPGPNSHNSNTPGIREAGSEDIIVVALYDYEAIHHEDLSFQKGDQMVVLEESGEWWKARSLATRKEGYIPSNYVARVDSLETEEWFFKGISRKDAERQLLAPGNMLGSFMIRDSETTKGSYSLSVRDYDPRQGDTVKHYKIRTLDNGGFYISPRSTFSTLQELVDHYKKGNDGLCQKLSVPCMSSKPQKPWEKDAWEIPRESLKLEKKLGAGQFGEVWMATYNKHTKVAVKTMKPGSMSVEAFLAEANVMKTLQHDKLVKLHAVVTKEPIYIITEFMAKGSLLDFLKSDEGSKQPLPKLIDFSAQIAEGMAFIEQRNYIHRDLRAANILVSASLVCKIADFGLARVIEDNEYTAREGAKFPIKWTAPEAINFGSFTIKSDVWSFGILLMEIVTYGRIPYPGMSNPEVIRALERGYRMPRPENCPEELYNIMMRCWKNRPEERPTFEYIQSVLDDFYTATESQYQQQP

| Sequence | phosphorylation enrichment |
| --- | --- |
| DCPASYKKKSM [PDGFRA_Y768_R764C] | 0.368 |

biological target: MERTK (UniProt Q12866); test: as above
Sequence (Q12866 whole entry, looked up): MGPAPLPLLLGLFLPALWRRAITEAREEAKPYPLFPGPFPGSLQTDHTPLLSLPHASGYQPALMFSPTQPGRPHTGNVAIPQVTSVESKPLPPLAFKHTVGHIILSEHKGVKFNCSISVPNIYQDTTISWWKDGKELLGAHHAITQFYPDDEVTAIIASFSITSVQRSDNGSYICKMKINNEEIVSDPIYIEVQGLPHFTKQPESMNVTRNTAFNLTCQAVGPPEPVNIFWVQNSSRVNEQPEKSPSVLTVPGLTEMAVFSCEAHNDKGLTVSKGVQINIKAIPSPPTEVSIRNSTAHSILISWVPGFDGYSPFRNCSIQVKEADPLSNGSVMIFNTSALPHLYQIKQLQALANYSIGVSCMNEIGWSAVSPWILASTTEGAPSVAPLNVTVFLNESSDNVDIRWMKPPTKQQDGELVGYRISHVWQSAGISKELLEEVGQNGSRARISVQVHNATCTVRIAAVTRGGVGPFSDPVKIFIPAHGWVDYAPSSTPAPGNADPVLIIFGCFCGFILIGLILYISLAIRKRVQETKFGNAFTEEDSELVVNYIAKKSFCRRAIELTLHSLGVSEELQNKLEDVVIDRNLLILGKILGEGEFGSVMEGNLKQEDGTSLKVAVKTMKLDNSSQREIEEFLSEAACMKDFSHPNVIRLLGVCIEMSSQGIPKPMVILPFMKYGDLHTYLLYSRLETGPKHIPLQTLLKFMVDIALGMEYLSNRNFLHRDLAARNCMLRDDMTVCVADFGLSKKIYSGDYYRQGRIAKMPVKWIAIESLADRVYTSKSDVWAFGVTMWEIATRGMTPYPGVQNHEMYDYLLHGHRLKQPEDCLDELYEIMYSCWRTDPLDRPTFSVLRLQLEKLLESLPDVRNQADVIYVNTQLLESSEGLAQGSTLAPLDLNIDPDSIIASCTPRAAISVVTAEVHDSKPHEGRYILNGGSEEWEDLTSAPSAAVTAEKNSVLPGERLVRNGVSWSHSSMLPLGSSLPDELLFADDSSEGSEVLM

| Sequence | phosphorylation enrichment |
| --- | --- |
| AKLKDYYIFNK [CCDC42_Y149] | 0.704 |
| FEPWVYSLSFE [PRKDC_Y647_F649L_YF] | 1.35 |
| RSDSSYRMSAT [NHS_Y1532] | 0.68 |
| TFEPNYGTVKQ [RAPGEF6_Y1447_YF] | 0.442 |
| CTTIHYNFMWN [TP53_Y234_C238W_YF] | 0.717 |
| PLDGEYFSLQI [TP53_Y327_T329S] | 0.737 |
| RTVPLYESLRK [DDB1_Y718_P721L] | 8.17 |
| LKLIQYHLTQQ [AKAP4_Y554] | 1.15 |
| LITLVYGCSRQ [TMPRSS6_Y290_S288L] | 0.851 |
| FKPENYRRLDI [VHL_Y175_V170F] | 0.41 |
| EFRFIYMAVQH [PTPN11_Y515_Q510E_YF] | 0.519 |
| YDYKKYGKGLR [ZNF445_Y433] | 0.358 |
| QLDQRYLLVPE [DDX49_Y223] | 0.572 |
| LVTAWYIGFLC [KCNQ2_Y237] | 0.629 |
| DAHFTYSRYPW [LY75_Y888_D884A] | 1.27 |
| GGSSPYSRRLP [CDK13_Y351] | 0.414 |
| ESAAIYNPVIY [RHO_Y301_K296E] | 3.45 |
| TKQLTYEEQDL [PIK3C3_Y310] | 0.483 |
| GSQERDFELVE [TSC2_Y407_Y407D] | 0.484 |
| PVADRYDQSFE [MAPK14_Y323_P322R] | 0.448 |
| YRIGPYQPSVP [MATR3_Y784_N787S] | 0.425 |
| GLDGSYLLRFS [SH2D1A_Y29_D33Y_YF] | 0.414 |
| SKNSKCNAEST [PSEN1_Y315_Y315C] | 0.368 |
| GDPTEYYSTAI [IGSF22_Y501] | 0.497 |
| TLLERYGMTKI [ACSF3_Y355_E359K] | 0.407 |
| NYAKMYCNPDA [KNL1_Y489] | 0.498 |
| LLVVLYKFRCF [PSEN1_Y154_Y159F_YF] | 1.03 |
| DCPASYKKKSM [PDGFRA_Y768_R764C] | 0.363 |

biological target: SHP2-C SH2; test: SH2 binding enrichment of the phosphorylated peptide, bacterial display (enrichment ratio); higher = better substrate or ligand; peptides without Tyr show the background

| Sequence | SH2 binding enrichment |
| --- | --- |
| AKLKDYYIFNK [CCDC42_Y149] | 0.711 |
| FEPWVYSLSFE [PRKDC_Y647_F649L_YF] | 0.742 |
| RSDSSYRMSAT [NHS_Y1532] | 0.809 |
| TFEPNYGTVKQ [RAPGEF6_Y1447_YF] | 0.794 |
| CTTIHYNFMWN [TP53_Y234_C238W_YF] | 0.802 |
| PLDGEYFSLQI [TP53_Y327_T329S] | 0.836 |
| RTVPLYESLRK [DDB1_Y718_P721L] | 1.07 |
| LKLIQYHLTQQ [AKAP4_Y554] | 1.31 |
| LITLVYGCSRQ [TMPRSS6_Y290_S288L] | 1.04 |
| FKPENYRRLDI [VHL_Y175_V170F] | 0.923 |
| EFRFIYMAVQH [PTPN11_Y515_Q510E_YF] | 0.86 |
| YDYKKYGKGLR [ZNF445_Y433] | 1.02 |
| QLDQRYLLVPE [DDX49_Y223] | 0.715 |
| LVTAWYIGFLC [KCNQ2_Y237] | 0.712 |
| DAHFTYSRYPW [LY75_Y888_D884A] | 0.761 |
| GGSSPYSRRLP [CDK13_Y351] | 0.609 |
| ESAAIYNPVIY [RHO_Y301_K296E] | 0.553 |
| TKQLTYEEQDL [PIK3C3_Y310] | 0.686 |
| GSQERDFELVE [TSC2_Y407_Y407D] | 0.612 |
| PVADRYDQSFE [MAPK14_Y323_P322R] | 0.838 |
| YRIGPYQPSVP [MATR3_Y784_N787S] | 0.996 |
| GLDGSYLLRFS [SH2D1A_Y29_D33Y_YF] | 0.937 |
| SKNSKCNAEST [PSEN1_Y315_Y315C] | 0.754 |
| GDPTEYYSTAI [IGSF22_Y501] | 0.734 |
| TLLERYGMTKI [ACSF3_Y355_E359K] | 0.636 |
| NYAKMYCNPDA [KNL1_Y489] | 0.531 |
| LLVVLYKFRCF [PSEN1_Y154_Y159F_YF] | 1.92 |
| RVGVDYEGGGC [PLOD1_Y675] | 0.884 |

biological target: Grb2 SH2 (UniProt P62993); test: as above
Sequence (P62993 whole entry, looked up): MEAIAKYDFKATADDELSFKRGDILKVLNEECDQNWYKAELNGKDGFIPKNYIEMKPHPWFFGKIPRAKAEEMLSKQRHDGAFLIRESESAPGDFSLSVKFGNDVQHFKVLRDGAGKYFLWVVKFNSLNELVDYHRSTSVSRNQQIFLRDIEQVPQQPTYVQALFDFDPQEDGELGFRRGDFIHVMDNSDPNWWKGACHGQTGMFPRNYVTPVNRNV

| Sequence | SH2 binding enrichment |
| --- | --- |
| AKLKDYYIFNK [CCDC42_Y149] | 1 |
| FEPWVYSLSFE [PRKDC_Y647_F649L_YF] | 0.88 |
| RSDSSYRMSAT [NHS_Y1532] | 0.844 |
| TFEPNYGTVKQ [RAPGEF6_Y1447_YF] | 0.826 |
| CTTIHYNFMWN [TP53_Y234_C238W_YF] | 0.924 |
| PLDGEYFSLQI [TP53_Y327_T329S] | 0.762 |
| RTVPLYESLRK [DDB1_Y718_P721L] | 1.04 |
| LKLIQYHLTQQ [AKAP4_Y554] | 1.03 |
| LITLVYGCSRQ [TMPRSS6_Y290_S288L] | 1.29 |
| FKPENYRRLDI [VHL_Y175_V170F] | 0.892 |
| EFRFIYMAVQH [PTPN11_Y515_Q510E_YF] | 0.912 |
| YDYKKYGKGLR [ZNF445_Y433] | 0.939 |
| QLDQRYLLVPE [DDX49_Y223] | 0.754 |
| LVTAWYIGFLC [KCNQ2_Y237] | 1.16 |
| DAHFTYSRYPW [LY75_Y888_D884A] | 0.817 |
| GGSSPYSRRLP [CDK13_Y351] | 0.709 |
| ESAAIYNPVIY [RHO_Y301_K296E] | 0.758 |
| TKQLTYEEQDL [PIK3C3_Y310] | 0.786 |
| GSQERDFELVE [TSC2_Y407_Y407D] | 0.881 |
| PVADRYDQSFE [MAPK14_Y323_P322R] | 0.926 |
| YRIGPYQPSVP [MATR3_Y784_N787S] | 0.829 |
| GLDGSYLLRFS [SH2D1A_Y29_D33Y_YF] | 0.885 |
| SKNSKCNAEST [PSEN1_Y315_Y315C] | 0.913 |
| GDPTEYYSTAI [IGSF22_Y501] | 0.959 |
| TLLERYGMTKI [ACSF3_Y355_E359K] | 0.884 |
| NYAKMYCNPDA [KNL1_Y489] | 0.795 |
| LLVVLYKFRCF [PSEN1_Y154_Y159F_YF] | 1.98 |
| RVGVDYEGGGC [PLOD1_Y675] | 1.39 |

biological target: c-Src SH2; test: as above

| Sequence | SH2 binding enrichment |
| --- | --- |
| AKLKDYYIFNK [CCDC42_Y149] | 0.823 |
| FEPWVYSLSFE [PRKDC_Y647_F649L_YF] | 0.471 |
| RSDSSYRMSAT [NHS_Y1532] | 0.476 |
| TFEPNYGTVKQ [RAPGEF6_Y1447_YF] | 0.523 |
| CTTIHYNFMWN [TP53_Y234_C238W_YF] | 0.669 |
| PLDGEYFSLQI [TP53_Y327_T329S] | 0.387 |
| RTVPLYESLRK [DDB1_Y718_P721L] | 0.78 |
| LKLIQYHLTQQ [AKAP4_Y554] | 0.762 |
| LITLVYGCSRQ [TMPRSS6_Y290_S288L] | 0.54 |
| FKPENYRRLDI [VHL_Y175_V170F] | 0.402 |
| EFRFIYMAVQH [PTPN11_Y515_Q510E_YF] | 0.596 |
| YDYKKYGKGLR [ZNF445_Y433] | 0.749 |
| QLDQRYLLVPE [DDX49_Y223] | 0.763 |
| LVTAWYIGFLC [KCNQ2_Y237] | 0.622 |
| DAHFTYSRYPW [LY75_Y888_D884A] | 0.51 |
| GGSSPYSRRLP [CDK13_Y351] | 0.525 |
| ESAAIYNPVIY [RHO_Y301_K296E] | 0.464 |
| TKQLTYEEQDL [PIK3C3_Y310] | 0.541 |
| GSQERDFELVE [TSC2_Y407_Y407D] | 0.632 |
| PVADRYDQSFE [MAPK14_Y323_P322R] | 0.945 |
| YRIGPYQPSVP [MATR3_Y784_N787S] | 0.668 |
| GLDGSYLLRFS [SH2D1A_Y29_D33Y_YF] | 0.944 |
| SKNSKCNAEST [PSEN1_Y315_Y315C] | 0.546 |
| GDPTEYYSTAI [IGSF22_Y501] | 0.619 |
| TLLERYGMTKI [ACSF3_Y355_E359K] | 0.433 |
| NYAKMYCNPDA [KNL1_Y489] | 2.11 |
| LLVVLYKFRCF [PSEN1_Y154_Y159F_YF] | 1.85 |
| RVGVDYEGGGC [PLOD1_Y675] | 0.773 |
